How the values were obtained:
[1] = molecular target: T1, TCL1 peptide on HLA-A*02:01 (human); test: multimer staining
T1 peptide: SLLPIMWQLY

[2] = molecular target: T2, TCL1 70-79, alanine replacement at position 3 peptide on HLA-A*02:01 (human); test: cytokine release
T2 peptide: SLAPIMWQLY

[3] = molecular target: T3, TCL1 70-79, glycine replacement at position 8 peptide on HLA-A*02:01 (human); test: cytokine release
T3 peptide: SLLPIMWGLY

[4] = molecular target: T4, TCL1 70-79, glycine replacement at position 4 peptide on HLA-A*02:01 (human); test: cytokine release
T4 peptide: SLLGIMWQLY

[5] = molecular target: T5, TCL1 70-79, glycine replacement at position 10 peptide on HLA-A*02:01 (human); test: cytokine release
T5 peptide: SLLPIMWQLG

[6] = molecular target: T6, TCL1 70-79, alanine replacement at position 9 peptide on HLA-A*02:01 (human); test: cytokine release
T6 peptide: SLLPIMWQAY

[7] = molecular target: T7, TCL1 70-79, alanine replacement at position 7 peptide on HLA-A*02:01 (human); test: cytokine release
T7 peptide: SLLPIMAQLY

[8] = molecular target: T8, TCL1 70-79, alanine replacement at position 5 peptide on HLA-A*02:01 (human); test: cytokine release
T8 peptide: SLLPAMWQLY

[9] = molecular target: T9, TCL1 70-79, glycine replacement at position 6 peptide on HLA-A*02:01 (human); test: cytokine release
T9 peptide: SLLPIGWQLY

[10] = molecular target: T10, TCL1 70-79, glycine replacement at position 7 peptide on HLA-A*02:01 (human); test: cytokine release
T10 peptide: SLLPIMGQLY

[11] = molecular target: T11, TCL1 70-79, alanine replacement at position 1 peptide on HLA-A*02:01 (human); test: cytokine release
T11 peptide: ALLPIMWQLY

[12] = molecular target: T12, TCL1 70-79, alanine replacement at position 2 peptide on HLA-A*02:01 (human); test: cytokine release
T12 peptide: SALPIMWQLY

[13] = molecular target: T13, TCL1 70-79, glycine replacement at position 1 peptide on HLA-A*02:01 (human); test: cytokine release
T13 peptide: GLLPIMWQLY

[14] = molecular target: T14, TCL1 70-79, glycine replacement at position 5 peptide on HLA-A*02:01 (human); test: cytokine release
T14 peptide: SLLPGMWQLY

[15] = molecular target: T15, TCL1 70-79, alanine replacement at position 4 peptide on HLA-A*02:01 (human); test: cytokine release
T15 peptide: SLLAIMWQLY

[16] = molecular target: T16, TCL1 70-79, alanine replacement at position 8 peptide on HLA-A*02:01 (human); test: cytokine release
T16 peptide: SLLPIMWALY

[17] = molecular target: T17, TCL1 70-79, glycine replacement at position 2 peptide on HLA-A*02:01 (human); test: cytokine release
T17 peptide: SGLPIMWQLY

[18] = molecular target: T18, TCL1 70-79, alanine replacement at position 6 peptide on HLA-A*02:01 (human); test: cytokine release
T18 peptide: SLLPIAWQLY

[19] = molecular target: T19, TCL1 70-79, alanine replacement at position 10 peptide on HLA-A*02:01 (human); test: cytokine release
T19 peptide: SLLPIMWQLA

[20] = molecular target: T20, TCL1 70-79, glycine replacement at position 3 peptide on HLA-A*02:01 (human); test: cytokine release
T20 peptide: SLGPIMWQLY

[21] = molecular target: T21, TCL1 70-79, glycine replacement at position 9 peptide on HLA-A*02:01 (human); test: cytokine release
T21 peptide: SLLPIMWQGY

- binding result [1]: recognises
- binding result [2]: no recognition
- binding result [3]: no recognition
- binding result [4]: no recognition
- binding result [5]: recognises
- binding result [6]: no recognition
- binding result [7]: no recognition
- binding result [8]: no recognition
- binding result [9]: no recognition
- binding result [10]: no recognition
- binding result [11]: recognises
- binding result [12]: no recognition
- binding result [13]: recognises
- binding result [14]: no recognition
- binding result [15]: no recognition
- binding result [16]: no recognition
- binding result [17]: no recognition
- binding result [18]: no recognition
- binding result [19]: recognises
- binding result [20]: no recognition
- binding result [21]: no recognition
B1: TCL1-TCR (TCR, V domains shown)
Valpha: GQSLEQPSEVTAVEGAIVQINCTYQTSGFYGLSWYQQHDGGAPTFLSYNGLDGLEETGRFSSFLSRSDSYGYLLLQELQMKDSASYFCLLGSGAGSYQLTFGKGTKLSVIP
Vbeta: DAGVTQSPTHLIKTRGQHVTLRCSPISGHKSVSWYQQVLGQGPQFIFQYYEKEERGRGNFPDRFSARQFPNYSSELNVNALLLGDSALYLCASSFTDGGTYEQYFGPGTRLTVT
